Columns and labels:
[1] = target: human BMP6 (R&D Systems, Cat #507-BP) (human) (UniProt P22004); test: SPR (Biacore 3000), blocking of hBMP6 binding to immobilised hActR2B-hFc (competitor) by 400 nM mAb, 25 C
[2] = target: mouse BMP6 (R&D Systems, Cat #6325-BM) (mouse) (UniProt P20722); test: SPR (MASS-1), mAb captured on anti-human Fc, mBMP6 in solution, 37 C
[3] = target: human BMP6 (R&D Systems, Cat #507-BP) (human) (UniProt P22004); test: SPR (MASS-1), mAb captured on anti-human Fc, hBMP6 in solution, 25 C
[4] = target: human BMP6 (R&D Systems, Cat #507-BP) (human) (UniProt P22004); test: SPR (Biacore 3000), premix of 400 nM mAb and 10 nM hBMP6 over immobilised hActR2B-hFc (competitor), 25 C
[5] = target: human BMP6 (R&D Systems, Cat #507-BP) (human) (UniProt P22004); test: SPR (MASS-1), mAb captured on anti-human Fc, hBMP6 in solution, 37 C
[6] = target: human BMP6 (R&D Systems, Cat #507-BP) (human) (UniProt P22004); test: SPR (Biacore 3000), premix of 400 nM mAb and 10 nM hBMP6 over immobilised hActR2A-hFc (competitor), 25 C
[7] = target: human BMP6 (R&D Systems, Cat #507-BP) (human) (UniProt P22004); test: SPR (Biacore 3000), blocking of hBMP6 binding to immobilised hHJV-hFc (competitor) by 400 nM mAb, 25 C
[8] = target: human BMP6 (R&D Systems, Cat #507-BP) (human) (UniProt P22004); test: SPR (Biacore 3000), premix of 400 nM mAb and 10 nM hBMP6 over immobilised hHJV-hFc (competitor), 25 C
[9] = target: human BMP6 (R&D Systems, Cat #507-BP) (human) (UniProt P22004); test: SPR (Biacore 3000), blocking of hBMP6 binding to immobilised hActR2A-hFc (competitor) by 400 nM mAb, 25 C
[10] = target: mouse BMP6 (R&D Systems, Cat #6325-BM) (mouse) (UniProt P20722); test: SPR (MASS-1), mAb captured on anti-human Fc, mBMP6 in solution, 25 C

Chain of human BMP6 (R&D Systems, Cat #507-BP) (human) (P22004 375-513 limits assumed): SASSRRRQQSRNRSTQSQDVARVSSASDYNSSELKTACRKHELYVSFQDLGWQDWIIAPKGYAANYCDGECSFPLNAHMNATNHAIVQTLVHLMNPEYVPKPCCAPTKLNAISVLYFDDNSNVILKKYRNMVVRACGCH
Chain of mouse BMP6 (R&D Systems, Cat #6325-BM) (mouse) (P20722 372-510 limits assumed): as the sequence (P22004 375-513 limits assumed) above, with A21S, V23G, S25G, A26S, S31G, R39K counted along it

## Isotype Control mAb (antibody)
[1]
  % Blocking: 25%
[2]
  60 nM mBMP6 Bound (RU): 3 RU
[3]
  60 nM hBMP6 Bound (RU): 2 RU
[4]
  400 nM mAb + 10 nM hBMP-6 Binding (RU): 187 RU
[5]
  60 nM hBMP6 Bound (RU): 2 RU
[6]
  400 nM mAb + 10 nM hBMP-6 Binding (RU): 246 RU
[7]
  % Blocking: 41%
[8]
  400 nM mAb + 10 nM hBMP-6 Binding (RU): 299 RU
[9]
  % Blocking: 43%
[10]
  60 nM mBMP6 Bound (RU): 3 RU

Source: US20220251184A1
